Results reported in doi:10.1101/870071 (bioRxiv, 2019).

Key:
[1] = molecular target: GST-Exo70p (yeast Exo70) (yeast, UniProt P19658 1-623); test: pull-down
[2] = molecular target: GST-hExo70 (human Exo70) (human, UniProt Q9UPT5 1-735); test: pull-down
Sequence of GST-hExo70 (human Exo70) (Q9UPT5 whole entry): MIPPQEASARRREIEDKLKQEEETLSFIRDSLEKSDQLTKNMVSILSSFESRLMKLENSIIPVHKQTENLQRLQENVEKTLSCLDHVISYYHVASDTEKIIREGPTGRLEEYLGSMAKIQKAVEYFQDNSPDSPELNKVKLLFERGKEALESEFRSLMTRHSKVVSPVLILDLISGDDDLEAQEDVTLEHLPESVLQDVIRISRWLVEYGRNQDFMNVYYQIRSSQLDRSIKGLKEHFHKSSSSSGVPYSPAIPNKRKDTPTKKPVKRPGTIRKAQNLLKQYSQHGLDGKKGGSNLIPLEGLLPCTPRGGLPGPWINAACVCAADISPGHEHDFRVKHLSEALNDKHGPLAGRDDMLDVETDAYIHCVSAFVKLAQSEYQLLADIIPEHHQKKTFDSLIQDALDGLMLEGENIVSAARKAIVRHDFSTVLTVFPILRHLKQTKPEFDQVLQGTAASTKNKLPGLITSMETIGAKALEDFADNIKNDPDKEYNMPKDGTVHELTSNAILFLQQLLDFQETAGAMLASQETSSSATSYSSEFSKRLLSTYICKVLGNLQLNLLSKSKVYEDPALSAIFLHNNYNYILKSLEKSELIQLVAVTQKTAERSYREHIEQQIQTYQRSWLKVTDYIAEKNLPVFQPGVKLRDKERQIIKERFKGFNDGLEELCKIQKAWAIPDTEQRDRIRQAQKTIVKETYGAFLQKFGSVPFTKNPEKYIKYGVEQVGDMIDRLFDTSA

Sequence of GST-Exo70p (yeast Exo70) (P19658 whole entry): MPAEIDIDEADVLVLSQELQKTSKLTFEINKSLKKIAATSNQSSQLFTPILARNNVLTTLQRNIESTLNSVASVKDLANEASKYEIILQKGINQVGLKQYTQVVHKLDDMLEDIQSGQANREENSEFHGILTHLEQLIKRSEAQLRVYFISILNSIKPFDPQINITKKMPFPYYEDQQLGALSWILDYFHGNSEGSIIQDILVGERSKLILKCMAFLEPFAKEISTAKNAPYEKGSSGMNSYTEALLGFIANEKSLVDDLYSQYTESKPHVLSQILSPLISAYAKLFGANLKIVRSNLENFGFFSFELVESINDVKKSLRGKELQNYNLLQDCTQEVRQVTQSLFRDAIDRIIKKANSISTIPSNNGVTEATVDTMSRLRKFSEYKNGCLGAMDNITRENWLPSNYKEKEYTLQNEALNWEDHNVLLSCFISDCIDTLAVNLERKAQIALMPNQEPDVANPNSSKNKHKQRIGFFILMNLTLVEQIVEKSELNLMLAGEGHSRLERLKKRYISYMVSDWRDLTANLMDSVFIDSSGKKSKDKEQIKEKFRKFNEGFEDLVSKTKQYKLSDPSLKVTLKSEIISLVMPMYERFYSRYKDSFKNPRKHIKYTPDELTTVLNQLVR

Row | fold binding against human Exo70 [1] [fold] | fold binding against yeast Exo70p [2] [fold] | Binder
1 | 2 | – | His-Bem1p (natural protein, yeast, UniProt P29366 1-551, looked up) MLKNFKLSKRDSNGSKGRITSADISTPSHDNGSVIKHIKTVPVRYLSSSSTPVKSQRDSSPKNRHNSKDITSPEKVIKAKYSYQAQTSKELSFMEGEFFYVSGDEKDWYKASNPSTGKEGVVPKTYFEVFDRTKPSSVNGSNSSSRKVTNDSLNMGSLYAIVLYDFKAEKADELTTYVGENLFICAHHNCEWFIAKPIGRLGGPGLVPVGFVSIIDIATGYATGNDVIEDIKSVNLPTVQEWKSNIARYKASNISLGSVEQQQQQSITKPQNKSAKLVDGELLVKASVESFGLEDEKYWFLVCCELSNGKTRQLKRYYQDFYDLQVQLLDAFPAEAGKLRDAGGQWSKRIMPYIPGPVPYVTNSITKKRKEDLNIYVADLVNLPDYISRSEMVHSLFVVLNNGFDREFERDENQNNIKTLQENDTATFATASQTSNFASTNQDNTLTGEDLKLNKKLSDLSLSGSKQAPAQSTSGLKTTKIKFYYKDDIFALMLKGDTTYKELRSKIAPRIDTDNFKLQTKLFDGSGEEIKTDSQVSNIIQAKLKISVHDI
2 | – | 4 | His-GIV-CT (C-terminus of GIV/Girdin), wild type (domain or fragment) SETLESRHHKIKTGSPGSEVVTLQQFLEESNKLTSVQIKSSSQENLLDEVMKSLSVSSDFLGKDKPVSCGLARSVSGKTPGDFYDRRTTKPEFLRPGPRKTEDTYFISSAGKPTPGTQGKIKLVKESSLSRQSKDSNPYATLPRASSVISTAEGTTRRTSIHDFLTKDSRLPISVDSPPAAADSNTTAASNVDKVQESRNSKSRSREQQSS
